Assay results reported in the supplement of paper PMC10724198.
± gives the standard deviation of the averaged measurements.

Tested on: Saccharomyces cerevisiae
Assay: protein stability index of tFT-peptide fusion (C-terminal peptide) (PSI (0-1 scale)); higher = more stable (slower turnover)
Details: genetic background: wild type; temperature: 30 C
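Further: PSI is a weighted mean of sequencing reads over stability bins, variants kept only with over 10 reads, mCherry proximal and sfGFP distal, peptide attached via GGGS linker.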

PPPLPPPSLLPT
protein stability index: 0.762 ± 0.043

PPPLPSIPPFVL
protein stability index: 0.708 ± 0.094

PPPLPSPAPPPP
protein stability index: 0.709 ± 0.053

PPPLSPPRPPRH
protein stability index: 0.701 ± 0.022

PPPNSTPNPLST
protein stability index: 0.7394 ± 0.0058

PPPPAHSYHPPS
protein stability index: 0.714 ± 0.16

PPPPGPSSPHPP
protein stability index: 0.707 ± 0.041

PPPPHCPQPPPP
protein stability index: 0.72 ± 0.018

PPPPHDLLTPPS
protein stability index: 0.736 ± 0.0079

PPPPLAPSPPPS
protein stability index: 0.6542 ± 0.0025

PPPPLPLPPSLP
protein stability index: 0.5979 ± 0.0054

PPPPLPPALFPP
protein stability index: 0.589 ± 0.013

PPPPLPPFPPHP
protein stability index: 0.659 ± 0.017

PPPPLPPSSPPL
protein stability index: 0.751 ± 0.027

PPPPPACRLCFF
protein stability index: 0.634 ± 0.1

PPPPPLPQAPPT
protein stability index: 0.687 ± 0.014

PPPPPPLPPLSP
protein stability index: 0.717 ± 0.035

PPPPPPLPPSAA
protein stability index: 0.711 ± 0.0091

PPPPPPNLASHP
protein stability index: 0.707 ± 0.0031

PPPPPPPCFFPP
protein stability index: 0.715 ± 0.048

PPPPPPPHPTPT
protein stability index: 0.676 ± 0.039

PPPPPPPLPPPP
protein stability index: 0.667 ± 0.015

PPPPPPPPAPPY
protein stability index: 0.725 ± 0.017

PPPPPPPPAVVA
protein stability index: 0.569 ± 0.028

PPPPPPPPPHSP
protein stability index: 0.769 ± 0.01

PPPPPPPPPLAF
protein stability index: 0.653 ± 0.12

PPPPPPPPRPPS
protein stability index: 0.651 ± 0.069

PPPPPPPPTPAS
protein stability index: 0.654 ± 0.023

PPPPPPPPVPLL
protein stability index: 0.708 ± 0.017

PPPPPPPVLSSI
protein stability index: 0.647 ± 0.076

PPPPPPSAPPPS
protein stability index: 0.669 ± 0.026

PPPPPPSISPSP
protein stability index: 0.5389 ± 0.0053

PPPPPPSPHPPS
protein stability index: 0.726 ± 0.024

PPPPPQLPQCPP
protein stability index: 0.711 ± 0.042

PPPPPRPPAGFL
protein stability index: 0.924 ± 0.095

PPPPPRPPPARL
protein stability index: 0.672 ± 0.06

PPPPPRPSPPHP
protein stability index: 0.833 ± 0.022

PPPPPSSPPLPP
protein stability index: 0.64 ± 0.083

PPPPPSVTRTQP
protein stability index: 0.649 ± 0.043

PPPPPTSPPPHP
protein stability index: 0.706 ± 0.032

PPPPRLSLHSPP
protein stability index: 0.713 ± 0.0085

PPPPRPACLPSN
protein stability index: 0.727 ± 0.018

PPPPRPSSDRFR
protein stability index: 0.684 ± 0.016

PPPPSLPHTIGP
protein stability index: 0.643 ± 0.042

PPPPSLPPSFPS
protein stability index: 0.67 ± 0.072

PPPPSPPPIPSP
protein stability index: 0.706 ± 0.04

PPPPSRPPPAPR
protein stability index: 0.701 ± 0.053

PPPPSRPPPPRL
protein stability index: 0.789 ± 0.021

PPPPTLSPPRSL
protein stability index: 0.718 ± 0.034

PPPPTPRPPSSL
protein stability index: 0.728 ± 0.061

PPPPVPPPALPL
protein stability index: 0.644 ± 0.045

PPPPVPPPPSSL
protein stability index: 0.749 ± 0.037

PPPQFPRPRPTS
protein stability index: 0.724 ± 0.014

PPPRFRPLPLRA
protein stability index: 0.5935 ± 0.0019

PPPRPPPRPLPP
protein stability index: 0.669 ± 0.024

PPPRPPSPPPPP
protein stability index: 0.672 ± 0.051

PPPRPPSPPPPS
protein stability index: 0.699 ± 0.035

PPPRPRPSSRSI
protein stability index: 0.71 ± 0.016

PPPRTTPYPSSL
protein stability index: 0.714 ± 0.055

PPPRVHPCHPPC
protein stability index: 0.678 ± 0.031

PPPSPGSSAPPP
protein stability index: 0.676 ± 0.037

PPPSPLANPPSP
protein stability index: 0.728 ± 0.092

PPPSPPPQPHRP
protein stability index: 0.665 ± 0.018

PPPSQPTSPPPP
protein stability index: 0.732 ± 0.067

PPPSRLSPVICP
protein stability index: 0.612 ± 0.01

PPPSRSLPPRPQ
protein stability index: 0.727 ± 0.027

PPPSRSLPPRRL
protein stability index: 0.661 ± 0.03

PPPSSIGRTPIS
protein stability index: 0.693 ± 0.033

PPPSSPPPPAPL
protein stability index: 0.694 ± 0.035

PPPTHQLAVLSP
protein stability index: 0.6413 ± 0.0062

PPPTPPPAPSHR
protein stability index: 0.677 ± 0.1

PPPTSPPHPPSP
protein stability index: 0.701 ± 0.083

PPPVFPPLPVLS
protein stability index: 0.598 ± 0.007

PPQFIYYPLPLF
protein stability index: 0.616 ± 0.063

PPQGMTGGRGDR
protein stability index: 0.697 ± 0.077

PPQTHPLPCPSP
protein stability index: 0.745 ± 0.018

PPRAPFVSPFGY
protein stability index: 0.723 ± 0.012

PPRAPSPSPLPP
protein stability index: 0.893 ± 0.1

PPRCPLPPLSPP
protein stability index: 0.701 ± 0.11

PPRFFARPPFRT
protein stability index: 0.6309 ± 0.0059

PPRGAPWTRPPQ
protein stability index: 0.691 ± 0.015
